Reference: PMC8495200
Values belong to the substance of their own block, whether it stands above or below them.

What was measured:
Assay in all cases: native gel or EMSA; Blue Native PAGE, purified recombinant non-tagged proteins in 1 x PBS, 1 mM DTT, 1 mM ATP; 4-16% Bis-Tris gels, cold room, Coomassie staining
[1] = molecular target: UBXD9^331–573, GST tag cleaved (D. discoideum)
[2] = molecular target: UBXD9^384–573, GST tag cleaved (D. discoideum)
[3] = molecular target: UBXD9^261–573, GST tag cleaved (D. discoideum)

stoichiometry N [1]: 6
Substance: UBXD9^331–573, GST tag cleaved (domain or fragment)

stoichiometry N [2]: 6
Substance: UBXD9^384–573, GST tag cleaved (domain or fragment)

stoichiometry N [3]: 6
Substance: UBXD9^261–573, GST tag cleaved (domain or fragment)
